Measurements taken from paper PMC6879610.

Experiments:
[1] = molecular target: Env Du156.12 (HIV-1 (Du156.12))
[2] = molecular target: Env HxB2 (HIV-1 (HxB2)) (UniProt P04578)

| Substance | neutralisation of Du156.12 (TZM-bl), fold decrease against PGZL1 [1] [fold] | neutralisation of HxB2 (TZM-bl), fold decrease against PGZL1 [2] [fold] |
| --- | --- | --- |
| PGZL1 F100A IgG (antibody) | > 10 | > 10 |
| PGZL1 W99A IgG (antibody) | > 10 | > 10 |
